Assay results from publication PMC5138414, “Structural Basis for Redox Regulation of Cytoplasmic and Chloroplastic Triosephosphate Isomerases from Arabidopsis thaliana” (Frontiers in Plant Science, 2016).
Residue numbers refer to the chain shown, from its start. In names and notes the source's numbering stands.

Target: the molecule itself
Experiment: SEC; analytical size-exclusion chromatography, Superdex 75 10/300GL, calibrated with Bio-Rad gel filtration standard, 0.5 mL/min, 100 mM TEA pH 7.4, 10 mM EDTA, 1 mM DTT; dimer of identical subunits

B1: cTPI-C218S (enzyme, Arabidopsis thaliana, UniProt P48491 1-254, looked up)
chain: MARKFFVGGNWKCNGTAEEVKKIVNTLNEAQVPSQDVVEVVVSPPYVFLPLVKSTLRSDFFVAAQNCWVKKGGAFTGEVSAEMLVNLDIPWVILGHSERRAILNESSEFVGDKVAYALAQGLKVIACVGETLEEREAGSTMDVVAAQTKAIADRVTNWSNVVIAYEPVWAIGTGKVASPAQAQEVHDELRKWLAKNVSADVAATTRIIYGGSVNGGNSKELGGQADVDGFLVGGASLKPEFIDIIKAAEVKKSA
notes: cytoplasmic triosephosphate isomerase, Arabidopsis thaliana, At3g55440, point mutant; Made by site-directed mutagenesis of the cTPI construct; source: E. coli BL21 (DE3) Δtpi, purified (IMAC His-Trap FF, Superdex 75)
- binding result: binds

B2: cTPI-C13S/C218S (enzyme, Arabidopsis thaliana, UniProt P48491 1-254, looked up)
chain: B1 chain with C13S
notes: cytoplasmic triosephosphate isomerase, Arabidopsis thaliana, At3g55440, double mutant; Made by site-directed mutagenesis of the cTPI construct; also called cTPI double mutant; source: E. coli BL21 (DE3) Δtpi, purified (IMAC His-Trap FF, Superdex 75)
- stoichiometry N: 2

B3: cTPI-C13S (enzyme, Arabidopsis thaliana, UniProt P48491 1-254, looked up)
chain: B1 chain with C13S, S218C
notes: as for B1
- stoichiometry N: 2
